Source: paper PMC6402204, “Production Optimization of an Active β-Galactosidase of Bifidobacterium animalis in Heterologous Expression Systems” (BioMed Research International, 2019)

Substrate: O=[N+]([O-])c1ccccc1O[C@@H]1O[C@H](CO)[C@H](O)[C@H](O)[C@H]1O
Assay: purified protein
Assay type: biochemical, Bifidobacterium animalis
Conditions: pH 6.0, 100 mM Na2HPO4-citric acid, 60°C, oNPG 1.38-25 mM, free enzyme

B1: bG42-106 (Bifidobacterium animalis subsp. lactis) (protein)
chain: MSASTQHRAHRWPQPLPGNDRKIWFGADYNPDQWPEDVQDEDIRLMKQAGVNIVSLAIFSWANIETSDGNFEFDWLDRVIDKLYKAGIAVDLASATASPPMWLTSAHPEVLRRDEQGHVIWPGARQHWRPTSPTFRTYALRLCREMAEHYKDNPAIVSWHVGNEYGCHNYFDYSDDAVQAFREWCRDRYGTIDKVNAAWGTNFWSQRLNSFEEILPPRYVGGEGNFTNPGRLLDFKHFCSDALKEFFCAERDVLSEVTPNIPLTTNFMVSASQNTLDYDDWAHEVDFVSNDHYFTPGSWHIDELAYSASLVDGISRKKPWFLMEQSTSAVNWREINPRKEPGELIRDSMLHLAMGADAICYFQWRQSRSGAEKFHSAMLPLAGEHSQIYRDVCALGADLDTLSDAGILRSKLSKARVAIVQDIQSEWATEHTATPTQHIREWTEPLDWFAAFANRGVTADVTPIHAQWDTYDAVVIPCVYLFSEEMAERLRTFVRNGGKAFVTYYSALADEHDRLHTEGWPGLIGDVVGVRIEEHCPLGTLFPGMLDHLDVSNGTVVHDLADVIDAIADDTTVLATFEADPATGMDGRAAITVHPYHEGGVAYIAGKLGRDGISQSLPEICAALGFELDADPRAGDVLRVVREQEDGAIFEFLFNRTRNTVTADRPAGDMLICSLATDSTDKVTLEPNGVLAFRR
notes: full-length, 695 residues, 78 kDa calculated, no signal peptide; C-terminal His6 (pET-30a(+)), E. coli BL21(DE3), Ni-NTA purified; homodimer by native PAGE (~180 kDa)
Km: 5.14 mM
